Laboratory results as given in patent publication US8778635B2, “Thermostable proteins and methods making and using thereof” (Becton, Dickinson and Company, priority 2006, dated 2014).
Residue numbers refer to the chain shown, from its start. Numbers in names are those of the source.

B1: Modified protein 1: 3M-GGBP (SEQ ID NO:3) with substitution N39I (protein)
chain: ADTRIGVTIYKYDDNFMSVVRKAIEQDAKAAPDVQLLMIDSQNDQSKQNDQIDVLLAKGVKALAINLVDPAAAGTVIEKARGQNVPVVFFNKEPSRKALDSYDKAYYVGTDSKESGIIQGDLIAKHWAANQGWDLNKDGQIQFVLLKGCPGHPDAEARTTYVIKELNDKGIKTEQLQLDTAMWDTAQAKDKMDAWLSGPNANKIEVVIANNDRMAMGAVEALKAHNKSSIPVFGVDASPEALALVKSGALAGTVLNDANNQAKATFDLAKNLADGKGAADGTNWKIDNKVVRVPYVGVDKDNLAEFSKK
B2: Modified protein 9: 3M-GGBP (SEQ ID NO:3) with substitution N226K (protein)
chain: B1 chain with I39N, N226K
B3: Modified protein 5: 3M-GGBP (SEQ ID NO:3) with substitutions Q175E, Q177H, L178M (protein)
chain: B1 chain with I39N, Q175E, Q177H, L178M
B4: Modified protein 8: 3M-GGBP (SEQ ID NO:3) with substitution N226G (protein)
chain: B1 chain with I39N, N226G
B5: Modified protein 3: 3M-GGBP (SEQ ID NO:3) with substitutions G82E, Q83K, N84D (protein)
chain: B1 chain with I39N, G82E, Q83K, N84D
B6: Modified protein 7: 3M-GGBP (SEQ ID NO:3) with substitutions G198S, P199S, N200K (protein)
chain: B1 chain with I39N, G198S, P199S, N200K
B7: Modified protein 11: 3M-GGBP (SEQ ID NO:3) with substitutions K270Y, N271S (protein)
chain: B1 chain with I39N, K270Y, N271S
B8: Modified protein 6: 3M-GGBP (SEQ ID NO:3) with substitutions Q175I, Q177E (protein)
chain: B1 chain with I39N, Q175I, Q177E
B9: Modified protein 4: 3M-GGBP (SEQ ID NO:3) with substitution N130D (protein)
chain: B1 chain with I39N, N130D
B10: Modified protein 13: 3M-GGBP (SEQ ID NO:3) with substitution N302T (protein)
chain: B1 chain with I39N, N302T
B11: Modified protein 10: 3M-GGBP (SEQ ID NO:3) with substitutions N259E, N260S (protein)
chain: B1 chain with I39N, N259E, N260S
B12: Modified protein 12: 3M-GGBP (SEQ ID NO:3) with substitutions N283D, W284L (protein)
chain: B1 chain with I39N, N283D, W284L
B13: W183C(1, 3, 5, 10): W183C (SEQ ID NO:4) with N39I, G82E, Q83K, N84D, Q175E, Q177H, L178M, N259E and N260S (protein)
chain: ADTRIGVTIYKYDDNFMSVVRKAIEQDAKAAPDVQLLMIDSQNDQSKQNDQIDVLLAKGVKALAINLVDPAAAGTVIEKAREKDVPVVFFNKEPSRKALDSYDKAYYVGTDSKESGIIQGDLIAKHWAANQGWDLNKDGQIQFVLLKGEPGHPDAEARTTYVIKELNDKGIKTEELHMDTAMCDTAQAKDKMDAWLSGPNANKIEVVIANNDAMAMGAVEALKAHNKSSIPVFGVDALPEALALVKSGALAGTVLNDAESQAKATFDLAKNLADGKGAADGTNWKIDNKVVRVPYVGVDKDNLAEFSKK

Columns and labels:
[1] = Fluorescence assay of glucose binding (glucose titration, Kd and fluorescence response)
Experimental: Dye-protein fluorophore (N,N′-dimethyl-N-(iodoacetyl)-N′-(7-nitrobenz-2-oxa-1,3-diazol-4-yl)ethylenediamine designated IANBD) or acrylodan coupling was performed as described by the manufacturer (Molecular Probes).
Briefly, 0.5 ml of 3M-GGBP (1-2 mg/ml) was treated with 2.5 molar excess of dithiothreitol for 30 min. A10-fold molar excess solution of IANBD in DMSO (0.5 mg/100 uL) was then added. While protected from light, the protein and dye were gently mixed for 4 h at 25° C. before the unreacted dye was removed by Nap-5 column chromatography (Amersham Biosciences).
Binding constants were determined by titration of increasing concentrations of glucose into a 0.1 μM protein in PBS and monitoring the change in fluorescence. The Kd was determined from the following relationships as adapted from Pisarchick and Thompson (Pisarchick, M. L. and Thompson, N. L. Biophys. J. (1990), 58, 1235-1249):
[formula] where F is fluorescence intensity, Finf is fluorescence at infinity, F0 is fluorescence at zero
[formula] where [Glc]free is the concentration of free glucose and [Glc]tot and [Prot]tot are the total concentrations of glucose and protein, respectively. For the SM4, the ratio of the area under the fluorescence curve from 514-540 nm to the area under the curve at 450-470 nm was used in place of fluorescence intensity in the equations above. […]

[2] = Circular dichroism melting temperature (Tm), CD signal at 222 nm versus temperature; type: physicochemical; design: key to + ΔTm / − ΔTm: Tm difference in °C from reference 3M-GGBP; conditions: for increase of Tm over the reference protein (in words): among the thirteen modified GGBPs, reference 3M-GGBP; for + ΔTm: increase of Tm over reference protein 3M-GGBP; for + ΔTm / − ΔTm: CD, PBS; for Previously Tested, See - Table II: ΔTm: repeated from Table II, modified 3M-GGBP versus 3M-GGBP; for − ΔTm: decrease of Tm versus reference protein 3M-GGBP
Experimental: Circular Dichroism (CD) spectra were preformed on a JASCO J-810. Samples of purified fluorophore-labeled proteins were exhaustively dialyzed into phosphate buffered saline (PBS) (comprised of 137 mM NaCl, 10 mM phosphate and 2.7 mM KCl, pH 7.4). The loss of secondary structure of 3M-GGBP and W183C-GGBP was observed by recording the CD signal at 222 nm as a function of temperature. During the experiment, the temperature of the sample changed at a rate of ˜1° C./min between 20 and 80° C. The apparent melting temperature at the midpoint of the transition (Tm) was obtained by fitting the experimental data points (CD signal versus temperature) with a sigmoidal function.

[3] = Storage stability of purified / labeled protein; type: physicochemical; conditions: acrylodan-labeled
Experimental: The modified GGBP were expressed from E. coli strain Sg13009 following standard protocols (Qiagen). After induction, bacteria were lysed using Bugbuster protein extraction reagent (Novagen) and purified by IMAC using Talon cobalt^2+ resin (Clontech). The purified protein in solution was filtered through 100 kDa cutoff filter and then concentrated using a 10 kDa cutoff filter (Millipore). The protein (1-2 mg/ml) was dialyzed at 4° C. into a solution containing 1M NaCl, 10 mM Tris-HCl, and 50 mM NaPO4 (pH 8) and stored at 4° C. Under these conditions the protein was active for at least six months. The yield from the purification was approximately 10 mg/l.
After labeling with acrylodan the SM4 was transferred to a buffer for frozen storage. The protein was dialyzed against a solution of 0.01M MES, 30 mM glucose (pH 5.5-5.7) for 24 h with three changes of buffer. After dialysis the protein was quantified and diluted to a 100 μM solution using the same buffer. The vials were then placed directly into a −70° C. freezer for storage. The protein is stable for at least 3 months under these conditions.
To lyophilize the SM4 protein, the protein solution was dialyzed against ammonium bicarbonate (50 mM, pH 7) for 24 h with three changes of buffer. The protein was passed through a 0.2 um Supor filter (Pall) and was aliquoted into amber vials (2 mg/vial). […]

| Molecule | + ΔTm [2] | Previously Tested, See - Table II: ΔTm [2] | − ΔTm [2] | other results |
| --- | --- | --- | --- | --- |
| W183C-acrylodan: reference W183C-GGBP labeled with acrylodan |  |  |  | Kd ([1]; glucose titrated into 0.1 μM protein in PBS): 19.6 ± 10%; Fluorescent Response ([1]; glucose, labeled protein): 3.4 ± 8%; Tm* ([2]; Tm determined in PBS, fluorophore-labeled protein): 39.8 ± 2% |
| B1 | 1 | +1 |  | increase of Tm over the reference protein (in words) [2]: greatest increase of Tm |
| B2 | 0.3 |  |  |  |
| B3 | 3 |  |  | increase of Tm over the reference protein (in words) [2]: greatest increase of Tm |
| B4 | 0.9 |  |  |  |
| B5 | 1.5 |  |  | increase of Tm over the reference protein (in words) [2]: greatest increase of Tm |
| B6 | 0.5 | +0.5 |  |  |
| B7 |  | −3.5 | 3.5 |  |
| B8 |  |  | 0.3 |  |
| B9 |  | −5.2 | 5.2 |  |
| B10 |  |  | 0.2 |  |
| B11 | 3.6 |  |  | increase of Tm over the reference protein (in words) [2]: greatest increase of Tm |
| B12 |  | −3.7 | 3.7 |  |
| B13 |  |  |  | time the protein is stable, frozen storage ([3]; 100 μM in 0.01M MES, 30 mM glucose (pH 5.5-5.7), −70° C.): at least 3 months; time the protein is stable, lyophilized ([3]; lyophilized from ammonium bicarbonate (50 mM, pH 7)): at least 6 months; Tm greater than that of the reference protein (W183C) ([2]; FIG. 1, protocol of Example 2): about 9.4 °C; melting temperature ([2]; without the termini additions present, in PBS): about 55.4 °C |
